According to patent publication US20180265850A1:

Key:
[1] = target: human FKBP (12 kD, GenBank accession number: AAP36774.1) (human) (UniProt P62942); assay: cell-based or functional assay
[2] = target: FRB (11 kD, PDB access number: 1AUE A) (UniProt P42345); assay: cell-based or functional assay

Sequence of human FKBP (12 kD, GenBank accession number: AAP36774.1) (human) (P62942 whole entry): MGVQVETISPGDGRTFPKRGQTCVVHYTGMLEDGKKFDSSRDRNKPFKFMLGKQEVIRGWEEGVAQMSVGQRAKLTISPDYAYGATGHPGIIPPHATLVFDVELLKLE
Sequence of human FKBP (12 kD, GenBank accession number: AAP36774.1) (P62942 whole entry): as above

| bioluminescence intensity of probe TPv2.4 (printed 'TPv2') in COS-7 lysate, 10^-6 M rapamycin vs vehicle [1] [fold] | bioluminescence of living COS-7 cells expressing TPv2.4 on a microslide, 10^-6 M rapamycin vs control [1] [fold] | bioluminescence of probe TPv2.7 (FRB-ALuc30(1-212)-FKBP), 10^-6 M rapamycin vs vehicle [1] [fold] | bioluminescence of probe TPv2.8 (FRB-ALuc30(19-212)-FKBP), 10^-6 M rapamycin vs vehicle [1] [fold] | luminescence intensity of cells expressing TPv2.4, 10^-6 M rapamycin [1] [fold] | optical intensity of probe TPv1.3 (printed 'TPv11.3'; FKBP-ALuc23(1-212)-FRB) with 10^-6 M rapamycin (fraction of intensity without rapamycin) [2] | optical intensity of probe TPv1.7 (FKBP-ALuc30(1-212)-FRB) with 10^-6 M rapamycin (fraction of intensity without rapamycin) [2] | Substance |
| --- | --- | --- | --- | --- | --- | --- | --- |
| 6.7 | 6 | 2 | 2 | 5.4 |  |  | FRB (11 kD, PDB access number: 1AUE A) (from UniProt P42345 2015-2114) |
|  |  |  |  |  | 0.33 | 0.33 | human FKBP (12 kD, GenBank accession number: AAP36774.1) (from UniProt P62942 1-108) |
